In the supplement of paper PMC10567573:
± gives the standard deviation.

Test: protein stability index of a GFP-peptide fusion (GPS, HEK-293T) (PSI 1-6); higher = more stable
Conditions: c terminus: a fixed tail appended
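Note: 24-mer peptide tiles fused after GFP, lentivirally expressed, FACS-sorted into six equal bins by GFP/DsRed ratio, decoded by Illumina sequencing, PSI is the read-weighted mean bin number.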

Row | Sequence | protein stability index (treatment: DMSO) | protein stability index (treatment: MLN4924 1 uM, 8 h)
1 | EYDYLFKVVLIGDSGVGKSNLLSR [RAB11A] | 2.6 ± 0.65 | 2.39 ± 0.7
2 | VRRGLAGATTLGDMIYVSGGFDGS [KLHL12] | 2.94 ± 0.56 | 2.87 ± 0.15
3 | KEHPDVQLLEDAILIIQGVLSDIN [NET1] | 2.49 ± 0.73 | 2.47 ± 0.23
4 | VNEMCPNITRIYNIGKSHQGLKLY [CPXM2] | 2.52 ± 0.35 | 2.57 ± 0.5
5 | LEFKLKSNDNEERLQVVKLLAKMF [PDS5B] | 2.12 ± 0.38 | 2.29 ± 0.28
6 | RLYVDKSLNLSTEFISSTKRPYAK [SERPINB5] | 3.41 ± 0.76 | 3.46 ± 0.5
7 | VDFQCVKSKSITNLAAAAADIPQD [BTBD10] | 4.79 ± 0.28 | 4.8 ± 0.11
8 | GFSSGRHRWQVDLQLGDGGGCTVG [TRIM15] | 2.93 ± 0.29 | 3.07 ± 0.27
9 | EDTPSDNDSGICMSPESYLGSPQH [ATF4] | 4.66 ± 0.36 | 4.83 ± 0.22
10 | IPTVKPLKPRPEPPKKPSNWRRKH [ZC2HC1A] | 4.2 ± 0.24 | 4.24 ± 0.11
11 | FVQREEQLQFLIRYHRFISFALYL [CDS1] | 2.4 ± 0.68 | 2.68 ± 0.9
12 | ALKLIIRLFLVEDLVDSLKLAVFM [RTN3] | 3.69 ± 0.17 | –
13 | KILRSMSRKVTTNKLLLSIIILLE [VTI1B] | 2.48 ± 0.53 | 2.32 ± 0.42
14 | QEKEELRELNDRLAVYIDKVRSLE [LMNB1] | 3.72 ± 0.31 | 3.9 ± 0.2
15 | DFHKPFLGGFRHKVTGVEYHNAGT [IQUB] | 2.88 ± 0.32 | 2.88 ± 0.16
16 | KPDKAVSIIECDMNVDFDAPLGYK [UFD1] | 3.94 ± 0.34 | 4.21 ± 0.2
17 | SVPFSFDPNTAAGWLSVSDDLTSV [TRIM35] | 3.42 ± 0.25 | 3.52 ± 0.23
18 | KYEQAFESSQKYKEGKYIIELNHM [YPEL3] | 2.71 ± 0.1 | 2.87 ± 0.2
19 | FVLNRLQYAIISEAWRLVEEGIVS [CRYL1] | 3.17 ± 0.66 | 3.09 ± 0.24
20 | LNLNYNCISDELLENLCENASTLR [FBXO39] | 3.28 ± 0.16 | 3.29 ± 0.21
21 | ASCCIDPREDGASVNDQCGFGVLR [TSPAN10] | 3.44 ± 0.14 | 3.83 ± 0.31
22 | TGFPQYAQLYEDFLFPIDISLVKR [DLC1] | 2.37 ± 0.24 | 2.35 ± 0.54
23 | NYPYDKSFEHRVRGVRRTASTPTP [CPN1] | 4.05 ± 0.4 | 4.14 ± 0.23

Row | Sequence | protein stability index (treatment: DMSO) | protein stability index (treatment: MLN4924 1 uM, 8 h)
24 | DDDKGDSKETRLTLMEEVLLLGLK [GOLPH3] | 3.16 ± 0.36 | 3.65 ± 0.32
25 | HFKPHGFSSDKAKAGSSEWLAVDG [ATF4] | 3.89 ± 0.18 | 3.91 ± 0.17
26 | QSTDGARGKRGYSRGLHAWEISWP [SPSB2] | 2.9 ± 0.14 | 2.75 ± 0.39
27 | FVHELHLSRLQRVKFCLLGALLAP [LPCAT4] | 2.41 ± 0.71 | 2.06 ± 0.34
28 | KRLREEEAARLFKQIVSAVAHCHQ [TRIB1] | 2.4 ± 0.36 | 2.4 ± 2
29 | FTVRPDVTQNSTAEPSRFSSSDSD [FCHO1] | 5.09 ± 0.32 | 5.06 ± 0.14
30 | VCTVQFLISKGANVNRTTANNDHT [ANKRD17] | 2.28 ± 0.24 | 2.46 ± 0.4
31 | MSASLNYKSFSKEQQTMDNLEKQL [TRIM55] | 4.71 ± 0.23 | 4.47 ± 0.14
32 | FLIGAYAVIYLKKTPEEAYRALLS [CDC14A] | 2.71 ± 0.8 | 2.7 ± 0.6
33 | STEVQAHPYSTTFQESASTPETRA [TEKT4] | 5.23 ± 0.17 | 5.16 ± 0.1
34 | LPLDDQVALLRAHAGEHLLLGATK [HNF4A] | 3.6 ± 0.19 | 3.63 ± 0.19
35 | DPRYELPSRKYISTKAIPEKYGAV [ZBED1] | 3.55 ± 0.18 | 3.55 ± 0.19
36 | EKVKACQGQYETIERLRSLSPKIM [TBC1D10A] | 3.02 ± 0.28 | 3.23 ± 0.16
37 | AEHWTKEHCGAVCFVKDNPQKSYF [WAS] | 2.92 ± 0.39 | 2.98 ± 0.23
38 | HMEDPRRAGKMLMTLPLLRQTSTK [ESRRG] | 3.63 ± 0.16 | 3.7 ± 0.28
39 | LKASEPGLFAVGEHTGEVRTARAL [PCDHGA10] | 4.06 ± 0.35 | 4.21 ± 0.16
40 | LSRYQNELAGVDTELLAERFYYQA [SMG5] | 2.7 ± 0.51 | 2.81 ± 0.43
41 | DSDEATAARLLFNMAGVTFRKFIP [DCTD] | 2.55 ± 0.19 | 2.58 ± 0.59
42 | AAGMRFPLPEAIDPDVGVNSLQSY [PCDHGA10] | 3.9 ± 0.2 | 4.12 ± 0.31
43 | YALRAYLGYQAVPSGSSGSLSTSS [CEBPB] | 2.23 ± 0.28 | 2.36 ± 0.3
44 | KKEEPEPETEAVSSSQEIPTMPQP [ZMYND11] | 5.45 ± 0.47 | 5.55 ± 0.23
45 | VMSIPDVIRLKQEQHVHNEKSVLK [PRKX] | 4.18 ± 0.15 | 4.25 ± 0.12
46 | SPPTRPVPGHRSERAIRTQPKQLI [SPRY1] | 4.04 ± 0.37 | 4.05 ± 0.18

Row | Sequence | protein stability index (treatment: DMSO) | protein stability index (treatment: MLN4924 1 uM, 8 h)
47 | GRCGPQAARAAGRDVAAEAVARSP [POMT2] | 4 ± 0.35 | 3.63 ± 0.15
48 | RKAALEQDLAFWYGPRWQEVIPYT [HMOX1] | 2.33 ± 0.23 | 2.54 ± 0.39
49 | NETKSQAFVSNSPKLFCPKNRSFD [PLD5] | 4.21 ± 0.23 | 3.86 ± 0.54
50 | DAFVKIVRHEGTRTLWSGLPATLV [SLC25A39] | 2.6 ± 0.61 | 2.03 ± 0.22
51 | WMEVLVLGVAQRSLPLQDELAFAE [ESRRA] | 3.47 ± 0.63 | 2.64 ± 0.97
52 | AAKRMRLEIYQSSQDEPIALDKQH [NOL4L] | 3.59 ± 0.27 | 3.88 ± 0.25
53 | RYESLTDPSKLDSGKELKIDIIPN [HSP90AB1] | 4.33 ± 0.2 | 4.31 ± 0.24
54 | GGQDSFESIESYDSCDRLTQSWSS [ETS1] | 3.68 ± 0.67 | 3.84 ± 0.3
55 | TLKEAYVQKLVKVCTDTDRWSLIS [TENT5C] | 2.58 ± 0.4 | 2.4 ± 0.41
56 | INQSFTGAERKAALCELLEKETQI [IQUB] | 4.38 ± 0.23 | 4.01 ± 0.19
57 | SLIGKGSFGQVVKAYDHQTQELVA [DYRK1B] | 3.56 ± 0.26 | 3.59 ± 0.43
58 | NFGLRLVVQRCSGQKWMIRNWIKH [GALNT9] | 2.67 ± 0.32 | 2.06 ± 0.59
59 | GCGYGCQLHHVVYCFMIAYGTQRT [FUT8] | 3.19 ± 0.45 | 3.06 ± 0.57
60 | RSLEELTRLAFELFAEEQAEGPNR [LPCAT4] | 3.32 ± 0.52 | 3.53 ± 0.18
61 | NGWTCLHWACKRNHGQVVSYLLKS [ANKRD40] | 2.72 ± 0.46 | 2.29 ± 0.43
62 | KPGFLAPRDLPKHTPLISKSQSLR [RASAL3] | 3.61 ± 0.2 | 3.8 ± 0.47
63 | MEPGDIIGVAGNHWDGYSKGVNRK [FUT8] | 4.4 ± 0.22 | 4.6 ± 0.35
64 | LRFFKEKDGKAFHPTYEEKLKLVA [ACBD3] | 2.53 ± 0.26 | 2.5 ± 0.55
65 | REPAGRWKEGRPRVEESGSKKEGK [PBXIP1] | 5.34 ± 0.21 | 5.36 ± 0.21
66 | VVETINAAIGVTTSPVLPSLIQLL [HACD3] | 2.89 ± 0.74 | 2.81 ± 0.4
67 | MASCPDSDNSWVLAGSESLPVETL [PBXIP1] | 4.31 ± 0.27 | 4.41 ± 0.22
68 | QAQQKKAPAKKANSTTTAGRDHFL [BRD3] | 4.44 ± 0.48 | 4.62 ± 0.15
69 | YETKYVVLSYLGLLSQEKLQEQHL [BCL2L13] | 2.63 ± 0.49 | 2.62 ± 0.46

Row | Sequence | protein stability index (treatment: DMSO) | protein stability index (treatment: MLN4924 1 uM, 8 h)
70 | QNRVFAYLCKRVPHTVLDRQLLCL [CEP70] | 2.46 ± 0.76 | 2.46 ± 0.59
71 | IERGASLEEVNDEGYTPLMEAARE [ANKRD17] | 5.34 ± 0.23 | 5.06 ± 0.21
72 | QLTGHQRIHSGEEPHKCPECGKRF [ZNF449] | 4.01 ± 0.28 | 4.82 ± 0.38
73 | LLLLLFWGVVSHSFPATLETQEQD [MMP1] | 2.97 ± 0.58 | 2.76 ± 0.82
74 | QGRKIAEVCCTSIVYATEKKQTKV [KCTD13] | 3.39 ± 0.15 | 3.61 ± 0.28
75 | KAENARLVVNIDNAKLASDDFRSK [KRT34] | 4.62 ± 0.16 | 4.71 ± 0.14
76 | KTNLDGMITVQLPEVPANENIKGY [PTPRD] | 4.12 ± 0.4 | 4.24 ± 0.28
77 | AYACLVCGKYFQGRGLKSHAYIHS [USP39] | 2.29 ± 0.27 | 2.51 ± 0.52
78 | SEADASHCIQQILEAVLHCHQMGV [CAMK2B] | 2.48 ± 0.14 | 2.67 ± 0.59
79 | GNRINVPMVRKRSVSNSTQTSSSS [DLC1] | 4.44 ± 0.13 | 4.65 ± 0.2
80 | AQFRLLSEVEELNMSLTALREKLL [TEKT4] | 2.23 ± 0.43 | 2.62 ± 0.45
81 | QPLSPASSSYSVSSPRSVDSYSST [ATF6] | 4.38 ± 0.22 | 4.59 ± 0.28
82 | TESSNTTIEDEDVKARKQEIIKVT [CAMK2D] | 5.21 ± 0.29 | 5.07 ± 0.25
83 | HWKTWLAIKCSPSLHVDDRERMEL [RIPK4] | 2.38 ± 0.26 | 2.53 ± 0.58
84 | IEKCTTPLSDDHDEKYGVPSLEEL [CRY1] | 5.11 ± 0.25 | 5.14 ± 0.18
85 | SLEKLLASEPLPWDLRFRIIHETA [RIPK4] | 2.18 ± 0.33 | 2.31 ± 0.33
86 | SFLNVTKSSLIWSYPAGSLTFPVR [TRIM43] | 1.89 ± 0.045 | 2.17 ± 0.16
87 | GPSEPGGTHPEDHQGHSDQHHHHH [RHOBTB2] | 5.65 ± 0.073 | 5.32 ± 0.24
88 | NILLDKHRMVVKIGDFGISKILSS [NEK8] | 2.19 ± 0.15 | 2.09 ± 0.17
89 | QACMGGRCLHMDQLQDFNIPQAGG [ADAMTS4] | 3.38 ± 0.15 | 3.21 ± 0.09
90 | CTMEPEPVQPGMLIDVCKYLGSLQ [TRIM35] | 2.43 ± 0.13 | 2.41 ± 0.22
